According to the Immune Epitope Database (IEDB):

How the values were obtained:
HLA-A*32:01 = assay: IEDB peptide-MHC binding, purified MHC/competitive/radioactivity; filed as Kd, often an IC50 or EC50 that approximates it; ≥ and ≤ were set here for values at or beyond the usual limits of such assays
HLA-B*53:01 = assay: as above; conditions: source organism: Dengue virus 4 Philippines/H241/1956
HLA-B*57:01 [1] = assay: as above
HLA-B*58:01 [2] = assay: as above
HLA-A*02:01 [3] = assay: IEDB peptide-MHC binding, purified MHC/competitive/fluorescence; filed as Kd, often an IC50 or EC50 that approximates it; ≥ and ≤ were set here for values at or beyond the usual limits of such assays
HLA-A*02:12 [4] = assay: as above; conditions: source organism: Listeria welshimeri serovar 6b str. SLCC5334
HLA-A*02:19 = assay: as above
HLA-A*03:01 [5] = assay: as above
HLA-A*23:01 [6] = assay: as above
HLA-A*24:03 [7] = assay: as above
HLA-A*26:01 = assay: as above
HLA-A*29:02 [8] = assay: as above
HLA-B*15:01 [9] = assay: as above
HLA-B*18:01 [10] = assay: as above
HLA-B*27:03 = assay: as above
HLA-B*39:01 [11] = assay: as above
HLA-B*46:01 [12] = assay: as above
HLA-B*51:01 = assay: as above
HLA-B*57:01 [13] = assay: as above
HLA-A*01:01 [14] = assay: IEDB peptide-MHC binding, purified MHC/competitive/fluorescence; ≥ and ≤ were set here for values at or beyond the usual limits of such assays
HLA-A*02:01 [15] = assay: as above; conditions: source organism: Sudan ebolavirus
HLA-A*01:01 [16] = assay: IEDB peptide-MHC binding, purified MHC/competitive/radioactivity; filed as Kd, often an IC50 or EC50 that approximates it; ≥ and ≤ were set here for values at or beyond the usual limits of such assays; conditions: source organism: Dengue virus 2 Jamaica/1409/1983
HLA-A*01:01 [17] = assay: IEDB peptide-MHC binding, purified MHC/direct/fluorescence; filed as Kd, often an IC50 or EC50 that approximates it; ≥ and ≤ were set here for values at or beyond the usual limits of such assays; conditions: source organism: Ebola virus - Gabon (1994-1997)
HLA-A*02:01 [18] = assay: as above; conditions: source organism: Ebola virus - Gabon (1994-1997)
HLA-A*02:12 [19] = assay: as above; conditions: source organism: Zaire ebolavirus
HLA-A*03:01 [20] = assay: as above; conditions: source organism: Ebola virus - Gabon (1994-1997)
HLA-A*11:01 [21] = assay: as above; conditions: source organism: Ebola virus - Gabon (1994-1997)
HLA-A*23:01 [22] = assay: as above; conditions: source organism: Zaire ebolavirus
HLA-A*24:03 [23] = assay: as above; conditions: source organism: Zaire ebolavirus
HLA-A*29:02 [24] = assay: as above; conditions: source organism: Ebola virus - Gabon (1994-1997)
HLA-A*68:02 [25] = assay: as above; conditions: source organism: Zaire ebolavirus
HLA-A*69:01 = assay: as above; conditions: source organism: Ebola virus - Gabon (1994-1997)
HLA-B*07:02 = assay: as above; conditions: source organism: Ebola virus - Gabon (1994-1997)
HLA-B*15:01 [26] = assay: as above; conditions: source organism: Ebola virus - Gabon (1994-1997)
HLA-B*18:01 [27] = assay: as above; conditions: source organism: Ebola virus - Gabon (1994-1997)
HLA-B*27:05 = assay: as above; conditions: source organism: Ebola virus - Gabon (1994-1997)
HLA-B*39:01 [28] = assay: as above; conditions: source organism: Ebola virus - Gabon (1994-1997)
HLA-B*40:01 = assay: as above; conditions: source organism: Ebola virus - Gabon (1994-1997)
HLA-B*44:02 = assay: as above; conditions: source organism: Ebola virus - Gabon (1994-1997)
HLA-B*46:01 [29] = assay: as above; conditions: source organism: Ebola virus - Gabon (1994-1997)
HLA-B*57:01 [30] = assay: as above; conditions: source organism: Ebola virus - Gabon (1994-1997)
HLA-B*58:01 [31] = assay: as above; conditions: source organism: Ebola virus - Gabon (1994-1997)
HLA-B*15:17 = assay: IEDB peptide-MHC binding, purified MHC/competitive/fluorescence; filed as Kd, often an IC50 or EC50 that approximates it; ≥ and ≤ were set here for values at or beyond the usual limits of such assays
HLA-A*68:02 [32] = assay: IEDB peptide-MHC binding, purified MHC/competitive/radioactivity; filed as Kd, often an IC50 or EC50 that approximates it; ≥ and ≤ were set here for values at or beyond the usual limits of such assays; conditions: source organism: Dengue virus 4 Philippines/H241/1956
HLA-A*11:01 [33] = assay: IEDB peptide-MHC binding, purified MHC/competitive/fluorescence; ≥ and ≤ were set here for values at or beyond the usual limits of such assays; conditions: source organism: Vaccinia virus
[34] = source organism: Dengue virus 4 Philippines/H241/1956
[35] = source organism: Dengue virus 2 Jamaica/1409/1983
[36] = source organism: Listeria welshimeri serovar 6b str. SLCC5334
[37] = source organism: Dengue virus 3 Martinique/1243/1999
[38] = source organism: Zaire ebolavirus
[39] = source organism: Shigella boydii CDC 3083-94

Question: Which results are given for MVMTTTANW?
Answer: Kd (HLA-A*32:01; [34]): 0.0263 µM; Kd (HLA-B*53:01): 0.00345 µM; Kd (HLA-B*57:01 [1]; [34]): 0.011 µM; Kd (HLA-B*58:01 [2]; [34]): 0.0162 µM

Question: Which results are given for TASGKLITEW?
Answer: Kd (HLA-B*57:01 [1]; [35]): 0.0497 µM; Kd (HLA-B*58:01 [2]; [35]): 0.163 µM

Question: Which Kd (HLA-A*02:01 [3]; [36]) does the source give for ELYENKPDV here?
Answer: 0.515 µM

Question: What about the Kd (HLA-A*02:12 [4]) of the same sequence?
Answer: ≥ 20 µM

Question: What about the Kd (HLA-A*02:19; [36]) of the same sequence?
Answer: 0.303 µM

Question: And the Kd (HLA-A*03:01 [5]; [36])?
Answer: ≥ 20 µM

Question: What about the Kd (HLA-A*23:01 [6]; [36]) of the same sequence?
Answer: ≥ 20 µM

Question: What about the Kd (HLA-A*24:03 [7]; [36]) of the same sequence?
Answer: ≥ 20 µM

Question: And the Kd (HLA-A*26:01; [36])?
Answer: ≥ 20 µM

Question: What about the Kd (HLA-A*29:02 [8]; [36]) of the same sequence?
Answer: ≥ 20 µM

Question: And the Kd (HLA-B*15:01 [9]; [36])?
Answer: ≥ 20 µM

Question: What about the Kd (HLA-B*18:01 [10]; [36]) of the same sequence?
Answer: ≥ 20 µM

Question: And the Kd (HLA-B*27:03; [36])?
Answer: ≥ 20 µM

Question: What about the Kd (HLA-B*39:01 [11]; [36]) of the same sequence?
Answer: ≥ 20 µM

Question: And the Kd (HLA-B*46:01 [12]; [36])?
Answer: ≥ 20 µM

Question: What about the Kd (HLA-B*51:01; [36]) of the same sequence?
Answer: ≥ 20 µM

Question: What about the Kd (HLA-B*57:01 [13]; [36]) of the same sequence?
Answer: ≥ 20 µM

Question: With NSSFIIDGPN as the sequence, how does the Kd (HLA-B*57:01 [1]; [37]) read?
Answer: 0.142 µM

Question: And the Kd (HLA-B*58:01 [2]; [37])?
Answer: 0.00543 µM

Question: How did the IC50 (HLA-A*01:01 [14]; source organism: Sudan ebolavirus) turn out when VTEIDQLVC was run?
Answer: 34.2 µM

Question: And the IC50 (HLA-A*02:01 [15])?
Answer: ≥ 322 µM

Question: IGLSSRATW was tested. Which Kd (HLA-B*57:01 [1]; [34]) did it give?
Answer: 0.0481 µM

Question: And the Kd (HLA-B*58:01 [2]; [34])?
Answer: 0.00663 µM

Question: For STSLSVSLVL, which Kd (HLA-A*01:01 [16]) is on record?
Answer: 12 µM

Question: What about the Kd (HLA-B*57:01 [1]; [35]) of the same sequence?
Answer: 0.667 µM

Question: How did the Kd (HLA-A*01:01 [17]) turn out when AKATGRYNL was run?
Answer: ≥ 20 µM

Question: And the Kd (HLA-A*02:01 [18])?
Answer: ≥ 20 µM

Question: What about the Kd (HLA-A*02:12 [19]) of the same sequence?
Answer: ≥ 20 µM

Question: What about the Kd (HLA-A*03:01 [20]) of the same sequence?
Answer: ≥ 20 µM

Question: What about the Kd (HLA-A*11:01 [21]) of the same sequence?
Answer: ≥ 20 µM

Question: What about the Kd (HLA-A*23:01 [22]) of the same sequence?
Answer: ≥ 20 µM

Question: What about the Kd (HLA-A*24:03 [23]) of the same sequence?
Answer: ≥ 20 µM

Question: What about the Kd (HLA-A*29:02 [24]) of the same sequence?
Answer: ≥ 20 µM

Question: What about the Kd (HLA-A*68:02 [25]) of the same sequence?
Answer: ≥ 20 µM

Question: What about the Kd (HLA-A*69:01) of the same sequence?
Answer: ≥ 20 µM

Question: What about the Kd (HLA-B*07:02) of the same sequence?
Answer: ≥ 20 µM

Question: And the Kd (HLA-B*15:01 [26])?
Answer: ≥ 20 µM

Question: And the Kd (HLA-B*18:01 [27])?
Answer: ≥ 20 µM

Question: And the Kd (HLA-B*27:05)?
Answer: ≥ 20 µM

Question: And the Kd (HLA-B*39:01 [28])?
Answer: 0.78 µM

Question: What about the Kd (HLA-B*40:01) of the same sequence?
Answer: ≥ 20 µM

Question: And the Kd (HLA-B*44:02)?
Answer: ≥ 20 µM

Question: What about the Kd (HLA-B*46:01 [29]) of the same sequence?
Answer: ≥ 20 µM

Question: And the Kd (HLA-B*57:01 [30])?
Answer: ≥ 20 µM

Question: And the Kd (HLA-B*58:01 [31])?
Answer: ≥ 20 µM

Question: What about the Kd (HLA-A*26:01; [38]) of the same sequence?
Answer: ≥ 20 µM

Question: What about the Kd (HLA-B*15:17; [38]) of the same sequence?
Answer: ≥ 20 µM

Question: And the Kd (HLA-B*27:03; [38])?
Answer: ≥ 20 µM

Question: And the Kd (HLA-B*51:01; [38])?
Answer: ≥ 20 µM

Question: For LASMAICSAV, which Kd (HLA-A*68:02 [32]) is on record?
Answer: 0.0262 µM

Question: And the Kd (HLA-B*57:01 [1]; [34])?
Answer: ≥ 21.9 µM

Question: And the Kd (HLA-B*58:01 [2]; [34])?
Answer: 0.586 µM

Question: How did the IC50 (HLA-A*01:01 [14]; source organism: Vaccinia virus) turn out when GTEKEFLRY was run?
Answer: 6.64 µM

Question: What about the IC50 (HLA-A*11:01 [33]) of the same sequence?
Answer: 11.5 µM

Question: Which results are given for RVWIQENPW?
Answer: Kd (HLA-A*32:01; [35]): 0.0224 µM; Kd (HLA-B*57:01 [1]; [35]): 0.00787 µM; Kd (HLA-B*58:01 [2]; [35]): 0.0034 µM

Question: Which results are given for MAMTGLPQA?
Answer: Kd (HLA-A*02:01 [3]; [39]): 0.0008 µM; Kd (HLA-A*02:19; [39]): 0.0003 µM; Kd (HLA-A*03:01 [5]; [39]): ≥ 20 µM; Kd (HLA-A*23:01 [6]; [39]): ≥ 20 µM; Kd (HLA-A*24:03 [7]; [39]): ≥ 20 µM; Kd (HLA-A*26:01; [39]): ≥ 20 µM; Kd (HLA-A*29:02 [8]; [39]): ≥ 20 µM; Kd (HLA-B*15:01 [9]; [39]): ≥ 20 µM; Kd (HLA-B*15:17; [39]): ≥ 20 µM; Kd (HLA-B*18:01 [10]; [39]): ≥ 20 µM; Kd (HLA-B*27:03; [39]): ≥ 20 µM; Kd (HLA-B*39:01 [11]; [39]): ≥ 20 µM; Kd (HLA-B*46:01 [12]; [39]): ≥ 20 µM; Kd (HLA-B*57:01 [13]; [39]): ≥ 20 µM
